Assay [1] concerns the target T1, 人Siglec-15抗原 (Siglec-15蛋白胞外段) (human) (UniProt Q6ZMC9).
T1 sequence (looked up): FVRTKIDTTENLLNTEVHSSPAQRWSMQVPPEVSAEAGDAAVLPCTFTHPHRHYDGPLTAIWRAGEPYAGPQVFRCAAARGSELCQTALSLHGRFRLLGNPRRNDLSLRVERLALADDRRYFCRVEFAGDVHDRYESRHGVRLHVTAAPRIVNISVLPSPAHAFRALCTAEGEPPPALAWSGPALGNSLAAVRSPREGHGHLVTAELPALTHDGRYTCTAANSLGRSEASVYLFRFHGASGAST
The assay can be described thus: ELISA, relative binding activity of HA-I purified by the method of Example 24; reference not given.

The target in assay [2] is T1, 人Siglec-15抗原 (Siglec-15蛋白胞外段) (human). The assay is described as follows: ELISA, relative binding activity of HA-I purified by the method of Example 26; reference not given.
The target is the same in assay [3]. The assay is described as follows: ELISA, relative binding activity of HA-I purified by the method of Example 27; reference not given.
The target is the same in assay [4]. The assay can be described thus: ELISA, relative binding activity of HA-I purified by the method of Example 28; reference not given.
For assay [5] the target is unchanged. The assay is described as follows: ELISA, relative binding activity of HA-I purified by the method of Example 29; reference not given.
Assay [6] shares this target. The assay is described as follows: ELISA, relative binding activity of HA-I purified by the method of Example 30; reference not given.
Assay [7] has the same target. The assay is described as follows: ELISA, relative binding activity of HA-I purified by the method of Example 31; reference not given.
Assay [8] has the same target. The assay can be described thus: ELISA, relative binding activity of HA-I purified by the method of Example 32; reference not given.
The target is the same in assay [9]. The assay can be described thus: ELISA, relative binding activity of HA-I purified by the method of Example 33; reference not given.

B1: 抗Siglec-15单克隆抗体HA-I (人源化抗体分子, human IgG1/Ck) (antibody, V domains shown)
VH: QVQLVQSGAEVKKPGASVKVSCKASGYTFTDYNMFWVRQAPGQRLEWIGYIYPDNGGTGYNQNFKSKATLTVDNSASTAYMELSSLRSEDTAVYYCARSEYDYFDYWGQGTLVTVSS
VL: DIVLTQSPSSLSASVGDRVTITCRASQDISNYLNWYQQKPGKAVKLLIYYTSRLHSGVPSRFSGSGSGTDYTFTISSLQPEDIATYFCQQGNTLPLTFGQGTKVELKR
On to B1, for which the 结合活性(%) was 100% in [1]; 112% in [2]; 88% in [3]; 90% in assay [4]; 78% in assay [5]; 105% in assay [6]. The 结合活性(%) came to 79% in [7], 86% in assay [8] and 83% in assay [9].

The values are drawn from patent CN117736324A.
